From PMC4010534

Target: Cdc42 biosensor with the effector-binding mutations T35S and Y40C in Cdc42 (UniProt Q13153)

difference in FRET/mCer ratio of the biosensor by fluorometry in HEK293 cells, GDI-bound (with excess GDI) against GDI-free: 17%
Substance: guanine nucleotide dissociation inhibitor (from UniProt P52565 1-204) (natural protein)
